Measurements reported in patent publication US20110059015A1, “VACCINE” (priority 2002, published 2011).
Positions count from the first letter of the chain named.

How the values were obtained:
HIV-1 X4 (NL4-3) = assay: p24 quantification after PBMC infection, X4 strain; type: cell-based; details: NL4-3, PBMC, p24 on day 7
Method: (§1) Excess virus and Fab were removed by washing, and PBMC incubated in complete RPMI 1640 at 37° C. Every two days after infection, half the culture supernatant (500 μl) was removed and replaced with fresh medium containing rhIL-2 and Fabs at the above concentration. Cell-free supernatants were tested for HIV-1 p24 antigen on day 7 using a commercial ELISA test (Coulter, Miami, Fla.). The percentage of neutralisation was calculated as the ratio between p24 levels for test samples a lone or with Fabs. Irrelevant HmFab P1 (10 μg/ml) was used as a negative control.

HIV-1 Bal = assay: In vivo neutralisation of HIV-1 Bal infection in SCID-hu-PBMC mice; details: Fab 100 μg i.p. x3
Source text: (A) Neutralisation of the HIV-1 MN strain by IgM Fabs M02 and M025 and IgG Fabs S8, S19 and S20 determined by plaque assay (NPA) in MT-4 cells. […] SCID mice grafted with adult human PBMC (SCID-hu-PBMC) sensitive to HIV-1 infection were infected 2 weeks after reconstitution with cell-free HIV-1 Bal stocks containing 100 TCID50. […] Peritoneal cells were recovered after 15 days and co-cultured with PHA-activated PBMC from HIV-1-seronegative individuals. Co-cultures were monitored in ELISA for HIV-1 core antigen in supernatant at days 7 (left) and 14 (right), and were considered positive when p24 was >30 ng/ml.
CB.17 SCID/SCID mice were bred and maintained under specific pathogen-free conditions in the Centro Nacional de Biotecnologia animal facility. Eight- to 10-week-old non-leaky phenotype mice were reconstituted by i.p. injection of 20×10^6 freshly isolated normal human PBMC. […] Mice were infected 2 weeks after PBMC reconstitution by i.p. injection of 0.5 ml of diluted cell-free HIV-1 Bal stocks containing 100 TCID50. Two weeks after viral challenge, mice were killed by cervical dislocation and peritoneal cells obtained by washing with ice cold PBS. […] Co-cultures were monitored by ELISA for HIV-1 core antigen in supernatant on days 7 and 14, and were considered positive when p24 was >30 ng/ml.

[1] = tested on: donor virus isolate (LTNP HIV-1); assay: IRA in PBMC with donor virus isolate; type: cell-based; details: Fab 25 μg/ml
Method: PBMC obtained from the patient in 1996 were cocultured with HIV-1-seronegative PBMC which had been stimulated for 3 days with phytohemagglutinin (PHA). Coculture was maintained in medium with interleukin-2 (IL-2) for at least 40 days (37° C., 5% CO2). Fresh PBMC were added each week and p24 antigen production was monitored every 7 days. Supernatant was harvested and characterised by TCID50% on stimulated PBMC. Supernatant (1 ml) from the coculture (1.3×10^3 TCID50%) was inoculated in 10×10^6 PBMC. After incubation (1 h, 37° C.), cells were centrifugated and 10 ml of RPMI with […] were added. Virus was grown and harvested. This first-passage virus stock was used to perform the IRA in PBMC. […] Medium with IL-2 was changed twice a week. After 14 days, the p24 assay was performed and TCID50% calculated. Neutralisation titer was calculated according to the formula given above.

gp120 III-B = gp120 III-B (Human immunodeficiency virus type 1 group M subtype B, UniProt P04578); details: donor serum 1/200, Fab 0.01-30 μg/ml
HIV-1 RF = assay: Infectivity reduction assay (IRA) in MT-2 cells, RF; type: cell-based; details: Fab 10 μg/ml
Method: (§2) The infectivity reduction assay (IRA) was performed using in MT-2 cells. Virus titer of LAI, SF-2, MN and RF strains was determined in MT-2 cells and expressed as TCID50 (50% tissue culture infective doses), calculated by the Spearman-Karber formula. Five 10-fold virus dilutions were mixed with different concentrations of Fabs S20, S19, S8, M02 and M025 and incubated (37° C., 1 h, 5% CO2), then added to a 96-well microtiter plate containing 10^5 MT-2 cells/well. Fresh medium (100 μl) was added 4 days later. Cytopathic effect (CPE), characterised by the appearance of giant multinuclear cells, was quantified on day 7. Six replicate wells were made for each dilution. Neutralisation was calculated by the formula % neutralisation=(1−p/n)×100, where p is the mean titer in TCID50/ml of virus produced in cultures incubated with the correspondent mixture and n is the mean titer of virus produced in cultures incubated without Fabs. Each titer point is the mean of two individual experiments.

HIV-1 R5 (Bal) = assay: p24 quantification after PBMC infection, R5 strain; type: cell-based; details: p24 on day 7
Method: as §1

HIV-1 MN strain = assay: Neutralisation plaque assay (NPA) in MT-4 cells; type: cell-based
Method: A neutralisation plaque assay (NPA) was established in MT-4 cells (Harada, et al., 1985) with minor modifications (Sánchez, et al., 1993). Six-well plates (Costar, Calif.) were incubated with 1 ml of poly-L-lysine (50 μg/ml, Sigma) for 60 min at room temperature and washed three times in phosphate-buffered saline (PBS, pH 7). MT-4 cells (4×10^6/well) were added and incubated 2 h, after which unbound cells were removed. Neutralisation was performed with 100 plaque-forming units (pfu) of virus and five purified Fabs (S20, S19, S8, M02 and M025) at different concentrations. The virus-antibody mixture was incubated (37° C., 3 h), slowly added to the plates and adsorbed (37° C., 90 min), after which virus was removed and 2 ml of agarose medium (0.2% SeaPlaque agarose in complete RPMI medium) were added. Plates were incubated (37° C., 5% CO2 atmosphere), and 2 ml of agarose medium were added on day 3. Plaque production was counted with the naked eye on day 7. Neutralisation titer was calculated according to the formula % neutralisation=(1−p/n)×100, where p is the amount of virus produced in presence of the corresponding Fab, n is the mean amount of virus produced without Fab, measured by number of plaques in cultures.

HIV-1 MN = assay: Infectivity reduction assay (IRA) in MT-2 cells, MN; type: cell-based; details: Fab 10 μg/ml
Method: as §2

HIV-1 SF-2 = assay: Infectivity reduction assay (IRA) in MT-2 cells, SF-2; type: cell-based; details: Fab 10 μg/ml, SF-2, MT-2 cells
Method: as §2

HIV-1 LAI strain = assay: Infectivity reduction assay (IRA) in MT-2 cells, LAI; type: cell-based; details: Fab 10 μg/ml
Method: as §2

B1: Fab S8: human IgG1 anti-gp120 Fab from LTNP donor; light chain SEQ ID 2, heavy chain SEQ ID 4 (antibody, listed as Homo sapiens)
heavy: LESGGGLVKPGGSLRLSCAASGFTFSSYAMHWVRQAPGKGLEWVAFIWFDGSNERYADSVKGRFTITRDNPKNTLYLQMNSLRVEDTAVYYCVRRGGSILTGFHLDYWGQGTLVTVSSASTKGPSVFPLAPSSKSTSGGTAALGCLVKDYFPEPVTVSWNSGALTSGVHTFPAVLQSSGLYSLSSVVTVPSSSLGTQTYICNVNHKPSNTKVDKRVEPKSCDKTS
light: ELTQSPSSLSASVGDRVTITCRASQGIRDDLGWYQQKPGKAPKRLIYAASNLQSGVPSRFSGGGSGTEFTLTISSLQPEDFATYYCLQHNSYPLTFGGGTKVEIKRTVAAPSVFIFPPSDEQLKSGTASVVCLLNNFYPREAKVQWKVDNALQSGNSQESVTEQDSKDSTYSLSSTLTLSKADYEKHKVYACEVTHQGLSSPVTKSFNKGKVLIL
modifications: S8 Heavy chain; Light chain
Fab concentration for 50% neutralisation (HIV-1 X4 (NL4-3)): less than 0.1 μg/ml | Fab-treated mice with undetectable p24 (HIV-1 Bal; co-culture day 7, 100 TCID50 HIV-1 Bal): 100% | Fab-treated mice with undetectable p24 (HIV-1 Bal; co-culture day 14, 100 TCID50 HIV-1 Bal): seven of eight | % neutralisation [1]: 32% | inhibition of gp120 binding of donor serum IgG (gp120 III-B): inhibited | % neutralisation (HIV-1 RF): greater than 90% | Fab concentration for 50% neutralisation (HIV-1 R5 (Bal)): less than 0.1 μg/ml | % neutralisation (HIV-1 MN strain; Fab 10 μg/ml): 100% | % neutralisation (HIV-1 MN): greater than 90% | % neutralisation (HIV-1 SF-2): greater than 90% | neutralisation (HIV-1 LAI strain): poorly neutralised

B2: Fab S20: human IgG1 anti-gp120 Fab; light chain SEQ ID 2, heavy chain SEQ ID 8 (antibody, listed as Homo sapiens)
heavy: B1 heavy with L7V, K9Q, G12R, A19S, T24S, S26R, S27D
light: B1 light
modifications: S20 Heavy chain; Light chain
% neutralisation (HIV-1 MN strain; Fab 1 μg/ml): 100%

B3: Fab S19: human IgG1 anti-gp120 Fab; light chain SEQ ID 2, heavy chain SEQ ID 6 (antibody, listed as Homo sapiens)
heavy: B1 heavy with L7V, K9Q, G12R, T24S, Y28H, A29G
light: B1 light
modifications: S19 Heavy chain; Light chain
% neutralisation (HIV-1 MN strain; Fab 20 μg/ml): 92%
